Reference: US20130122000A1 (TRELLIS BIOSCIENCE, published 2013)

Columns and labels:
HER3:heregulin complex = target: T1, HER3:heregulin complex (UniProt P21860 20-643; Q02297 177-241, limits assumed); assay: FortéBio biosensor (BLI), HER3 ECD on amine surface loaded with heregulin at 10 ug/ml, antibody from 67 nM, 3-fold series; average (Stdev 113)
T1 construct: Non-covalent receptor-ligand complex, formed on the biosensor by adding heregulin to immobilised HER3 ECD; also called heregulin active complex with HER3; complex of HER3 ECD with heregulin
T1 sequence (P21860 20-643 limits assumed, one chain of several): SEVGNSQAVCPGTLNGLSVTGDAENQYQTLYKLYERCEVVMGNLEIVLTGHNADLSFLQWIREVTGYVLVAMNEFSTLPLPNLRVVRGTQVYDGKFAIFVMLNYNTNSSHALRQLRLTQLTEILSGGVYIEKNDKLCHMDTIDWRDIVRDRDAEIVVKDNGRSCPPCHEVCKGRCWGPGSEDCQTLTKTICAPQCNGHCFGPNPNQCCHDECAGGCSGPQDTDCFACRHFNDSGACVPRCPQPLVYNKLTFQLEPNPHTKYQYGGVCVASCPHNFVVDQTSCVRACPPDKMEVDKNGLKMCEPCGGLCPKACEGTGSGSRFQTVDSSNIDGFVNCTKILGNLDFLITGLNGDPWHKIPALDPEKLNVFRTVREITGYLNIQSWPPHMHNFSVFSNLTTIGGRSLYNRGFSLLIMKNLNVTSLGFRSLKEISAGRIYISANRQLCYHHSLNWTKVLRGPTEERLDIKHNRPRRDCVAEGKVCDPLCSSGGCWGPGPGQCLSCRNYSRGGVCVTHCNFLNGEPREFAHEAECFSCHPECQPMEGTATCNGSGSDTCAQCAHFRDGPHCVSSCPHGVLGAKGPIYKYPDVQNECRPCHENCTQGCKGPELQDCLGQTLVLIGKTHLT
Method: The binding assay was repeated for two of the antibodies, 1G4 and 14B10 using the same FortéBio® method. HER3 ECD at 10-15 μg/ml was again captured onto the amine surface in the same buffer. Heregulin at 10 μg/ml was added to form the HER3:heregulin complex on the surface and the antibodies tested at 67 nM once again using three-fold dilution series and the data were fitted to determine binding constants.

[1] = target: T2, HER3 extracellular domain (ECD) (UniProt P21860 20-643); assay: FortéBio biosensor (BLI), HER3 ECD on amine-reactive surface, antibody in solution from 67 nM, 3-fold series; average (Stdev 2,660)
T2 construct: extracellular domain; Coupled to an amine-reactive biosensor surface at 10-15 ug/ml; also called HER3 ECD; ErbB3
T2 sequence (P21860 20-643 limits assumed): as the sequence (P21860 20-643 limits assumed, one chain of several) above
Method: Of these, six of these murine antibodies were assayed quantitatively for their binding affinities to HER3 ECD according to the commercially available FortéBio® method. In this method, ECD at 10-15 μg/ml was captured onto an amine-reactive surface in 10 mM MES, pH 6.0 at 25° C. Binding capacity is tested by treating the surface with unlabeled antibody. As unlabeled antibody accumulates on the surface, the optical characteristics of the surface are changed, thus allowing measurement of mass accumulation without requiring labeling. This is a modification of the Biacore™ style analysis. The antibodies were tested at 67 nM as the highest concentration and diluted in a three-fold dilution series. Response data for the various concentrations were individually and globally fitted to determine the binding affinities.

[2] = target: HER3 on tumor cells (MCF-7, MB468) (UniProt P21860 20-1342, limits assumed); assay: cell-based or functional assay
HER3 on tumor cells (MCF-7, MB468), sequence (P21860 20-1342 limits assumed): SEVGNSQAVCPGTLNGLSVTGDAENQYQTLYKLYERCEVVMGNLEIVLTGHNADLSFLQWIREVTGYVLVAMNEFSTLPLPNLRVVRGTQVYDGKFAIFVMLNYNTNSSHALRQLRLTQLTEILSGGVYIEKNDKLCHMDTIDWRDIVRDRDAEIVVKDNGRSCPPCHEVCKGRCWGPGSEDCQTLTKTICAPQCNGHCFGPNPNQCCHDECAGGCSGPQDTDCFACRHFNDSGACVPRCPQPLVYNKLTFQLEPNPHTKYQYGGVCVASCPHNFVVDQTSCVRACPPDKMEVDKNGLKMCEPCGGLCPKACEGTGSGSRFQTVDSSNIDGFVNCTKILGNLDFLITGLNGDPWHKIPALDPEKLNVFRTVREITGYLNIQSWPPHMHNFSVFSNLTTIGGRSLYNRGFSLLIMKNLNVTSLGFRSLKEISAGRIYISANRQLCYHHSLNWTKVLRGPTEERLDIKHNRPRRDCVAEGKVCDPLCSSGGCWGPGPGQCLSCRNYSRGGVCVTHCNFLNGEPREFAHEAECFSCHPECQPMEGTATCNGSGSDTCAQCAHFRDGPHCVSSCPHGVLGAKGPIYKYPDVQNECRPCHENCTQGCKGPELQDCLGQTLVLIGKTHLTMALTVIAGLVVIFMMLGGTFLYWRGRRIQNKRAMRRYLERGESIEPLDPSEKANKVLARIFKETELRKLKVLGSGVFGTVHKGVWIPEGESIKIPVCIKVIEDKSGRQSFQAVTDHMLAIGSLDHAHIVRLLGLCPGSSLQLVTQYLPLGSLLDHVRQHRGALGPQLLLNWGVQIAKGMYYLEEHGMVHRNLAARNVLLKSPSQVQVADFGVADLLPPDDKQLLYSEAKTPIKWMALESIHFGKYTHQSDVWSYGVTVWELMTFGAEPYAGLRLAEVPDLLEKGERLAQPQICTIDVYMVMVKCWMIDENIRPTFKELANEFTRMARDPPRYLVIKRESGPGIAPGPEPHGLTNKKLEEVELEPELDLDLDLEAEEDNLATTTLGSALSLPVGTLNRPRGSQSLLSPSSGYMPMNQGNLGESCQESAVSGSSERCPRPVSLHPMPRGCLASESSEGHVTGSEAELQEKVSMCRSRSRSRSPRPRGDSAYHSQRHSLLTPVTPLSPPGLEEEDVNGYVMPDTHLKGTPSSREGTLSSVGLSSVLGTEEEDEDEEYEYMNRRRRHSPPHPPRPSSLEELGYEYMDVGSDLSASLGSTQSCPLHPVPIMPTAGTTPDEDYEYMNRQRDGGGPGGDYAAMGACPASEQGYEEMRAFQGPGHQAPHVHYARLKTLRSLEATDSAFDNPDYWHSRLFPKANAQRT

[3] = target: T2, HER3 extracellular domain (ECD); assay: FortéBio biosensor (BLI), HER3 ECD on amine-reactive surface; average (Stdev 111,000)

Kd (HER3:heregulin complex)	Kd [1]	IC50, inhibition of HER3 tyrosine phosphorylation in MCF-7 cells stimulated with heregulin [2]	Kd [3]	Binder
0.327 nM	2.81 nM	~10 ng/mL	–	1G4 mAb (antibody, V domains shown, Murine monoclonal antibody from a hybridoma; also called IG4; antibody 1G4) VH: GASVKMSCKASGYTFTDYVISWVKQRTGQGLEWIGEIYPGSGRYYHNEKFKGKATLTADKSSNTAYIQLSSLTSEDSAVYFCTRSLQRLRYFDVWGAGTTVTVSS VL: QSPATLSVTPGDRVSLSCRASQSISDYLHWYQQKSHESPRLLIKYGSQSISGIPSRFSGSGSGTDFTLSISSVETEDFGMYFCQQSNSWPLTFGAGTKLELKR
–	–	–	165 nM	heregulin (ligand, UniProt Q02297-6 177-241, looked up, also called HRG) SHLVKCAEKEKTFCVNGGECFMVKDLSNPSRYLCKCPNEFTGDRCQNYVMASFYKHLGIEFMEAE
